A word on the Kd: it is the concentration at which binding is half-saturated. Low readings indicate higher affinity, high ones lower affinity.

The target in assay [1] is human CD8 (as used in SPR) (human) (UniProt P01732). In words: SPR. A general note: Surface plasmon resonance follows binding to a sensor surface in real time, without labels.
Assay [2] concerns the target human CD8 on cells (FACS) (human) (UniProt P01732). Briefly: FACS. In general terms: A flow cytometer gives signals particle by particle.

Chain of human CD8 (as used in SPR) (human) (P01732 22-182): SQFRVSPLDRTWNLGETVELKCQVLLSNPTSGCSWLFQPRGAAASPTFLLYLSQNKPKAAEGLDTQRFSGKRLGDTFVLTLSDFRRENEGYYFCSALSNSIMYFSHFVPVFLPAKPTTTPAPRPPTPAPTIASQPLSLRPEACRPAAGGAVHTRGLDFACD
Chain of human CD8 on cells (FACS) (human) (P01732 22-235): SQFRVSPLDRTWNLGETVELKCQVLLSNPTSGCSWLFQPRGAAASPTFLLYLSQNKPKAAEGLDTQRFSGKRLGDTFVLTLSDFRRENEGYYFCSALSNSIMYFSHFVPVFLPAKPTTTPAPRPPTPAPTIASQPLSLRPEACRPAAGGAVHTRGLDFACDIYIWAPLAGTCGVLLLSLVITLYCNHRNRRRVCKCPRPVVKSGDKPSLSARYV

B1: OKT8 (antibody, from another filing, V domains shown)
VH: EVQLQQSGAELVKPGASVKLSCTASGFNIKDTYIHFVRQRPEQGLEWIGRIDPANDNTLYASKFQGKATITADTSSNTAYMHLCSLTSGDTAVYYCGRGYGYYVFDHWGQGTTLTVSS
VL: DVQINQSPSFLAASPGETITINCRTSRSISQYLAWYQEKPGKTNKLLIYSGSTLQSGIPSRFSGSGSGTDFTLTISGLEPEDFAMYYCQQHNENPLTFGAGTKLELK
Turning to B1, in assay [1], the Kd worked out at 13 nM and the Ratio of KD huOKT8.v1/KD variant for binding to huCD8 is 1 X. This molecule displayed a Kd in assay [2] of 20 nM.

Source of the values: patent publication US20200172620A1.
